Experimental data as given in US20240034757A1 (OXFORD UNIVERSITY INNOVATION, published 2024).
Like-named read-outs stand apart in the source and are kept apart here.

T1: CXCL9_HUMAN (human, UniProt Q07325 23-125)
T1 sequence: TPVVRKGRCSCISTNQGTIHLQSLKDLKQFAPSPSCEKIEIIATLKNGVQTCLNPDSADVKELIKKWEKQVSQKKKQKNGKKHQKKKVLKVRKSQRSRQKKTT

T2: CXCL10_HUMAN (human, UniProt P02778 22-98)
T2 sequence: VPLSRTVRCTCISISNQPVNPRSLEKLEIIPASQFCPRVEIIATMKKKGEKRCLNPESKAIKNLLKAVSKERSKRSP

T3: CXCL13_HUMAN (human, UniProt O43927 23-109)
T3 sequence: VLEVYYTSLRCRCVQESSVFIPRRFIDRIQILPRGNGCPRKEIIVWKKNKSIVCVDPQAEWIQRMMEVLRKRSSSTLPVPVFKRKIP

T4: CXCL14_HUMAN (human, UniProt O95715 35-111)
T4 sequence: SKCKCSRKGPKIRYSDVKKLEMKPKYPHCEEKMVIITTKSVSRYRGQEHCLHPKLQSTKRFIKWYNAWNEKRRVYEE

T5: CXCL6_HUMAN (human, UniProt P80162 38-114)
T5 sequence: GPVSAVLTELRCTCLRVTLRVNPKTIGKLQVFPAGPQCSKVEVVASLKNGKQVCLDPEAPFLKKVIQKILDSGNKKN

T6: CXCL1_HUMAN (human, UniProt P09341 35-107)
T6 sequence: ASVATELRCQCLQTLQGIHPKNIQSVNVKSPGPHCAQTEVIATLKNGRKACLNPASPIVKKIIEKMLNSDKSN

T7: P467_RHIPU (Rhipicephalus pulchellus, UniProt L7M8Z8 22-127)
T7 sequence: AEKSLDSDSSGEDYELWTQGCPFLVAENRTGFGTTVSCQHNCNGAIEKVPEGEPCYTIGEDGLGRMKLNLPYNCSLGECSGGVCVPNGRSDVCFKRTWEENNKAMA

T8: P1243_AMBAM (Amblyomma americanum, UniProt A0A0C9S461 26-123)
T8 sequence: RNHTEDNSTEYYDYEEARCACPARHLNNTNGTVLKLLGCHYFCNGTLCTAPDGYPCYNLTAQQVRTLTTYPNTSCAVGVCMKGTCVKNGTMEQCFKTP

T9: P672_RHIPU (Rhipicephalus pulchellus, UniProt L7MC74 22-125)
T9 sequence: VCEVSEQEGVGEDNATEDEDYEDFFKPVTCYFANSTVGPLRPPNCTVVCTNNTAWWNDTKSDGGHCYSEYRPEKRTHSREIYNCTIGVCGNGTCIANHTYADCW

T10: P985_AMBPA (Amblyomma parvum, UniProt A0A023FT45 25-132)
T10 sequence: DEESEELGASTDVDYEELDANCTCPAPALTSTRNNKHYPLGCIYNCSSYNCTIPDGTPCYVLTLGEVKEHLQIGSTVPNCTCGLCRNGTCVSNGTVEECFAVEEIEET

T11: P991_AMBCA (Amblyomma cajennense, UniProt A0A023FFD0 29-136)
T11 sequence: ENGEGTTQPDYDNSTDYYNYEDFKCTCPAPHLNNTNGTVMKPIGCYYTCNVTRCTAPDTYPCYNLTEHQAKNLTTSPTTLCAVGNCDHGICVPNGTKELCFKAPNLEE

T12: CXCL11_HUMAN (human, UniProt O14625 22-94)
T12 sequence: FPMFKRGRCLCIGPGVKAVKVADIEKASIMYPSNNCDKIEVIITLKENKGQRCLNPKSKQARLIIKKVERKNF

T13: CXCL7_HUMAN (human, UniProt P02775 59-128)
T13 sequence: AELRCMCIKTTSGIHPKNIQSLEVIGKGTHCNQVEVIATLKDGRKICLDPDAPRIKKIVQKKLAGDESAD

T14: CXCL8_HUMAN (human, UniProt P10145 28-99)
T14 sequence: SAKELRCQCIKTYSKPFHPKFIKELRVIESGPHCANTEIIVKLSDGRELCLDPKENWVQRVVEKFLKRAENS

T15: CXCL4_HUMAN (human, UniProt P02776 32-101)
T15 sequence: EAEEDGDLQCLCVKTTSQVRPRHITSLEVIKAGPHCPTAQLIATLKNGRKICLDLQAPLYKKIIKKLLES

T16: P546_AMBCA (Amblyomma cajennense, UniProt A0A023FBW7 22-118)
T16 sequence: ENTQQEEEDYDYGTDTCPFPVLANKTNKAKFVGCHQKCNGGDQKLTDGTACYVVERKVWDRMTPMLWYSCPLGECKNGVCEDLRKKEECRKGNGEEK

T17: P1180_AMBTR (Amblyomma triste, UniProt A0A023G6B6 26-116)
T17 sequence: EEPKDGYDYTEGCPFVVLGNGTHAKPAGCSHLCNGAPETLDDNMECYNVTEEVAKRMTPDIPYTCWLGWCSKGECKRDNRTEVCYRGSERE

T18: P1181_AMBMA (Amblyomma maculatum, UniProt G3MIX6 26-115)
T18 sequence: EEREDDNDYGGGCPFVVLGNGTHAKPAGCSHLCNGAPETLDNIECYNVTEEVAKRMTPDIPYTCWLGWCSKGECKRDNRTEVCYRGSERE

T19: P1182_AMBMA (Amblyomma maculatum, UniProt G3MJ83 27-115)
T19 sequence: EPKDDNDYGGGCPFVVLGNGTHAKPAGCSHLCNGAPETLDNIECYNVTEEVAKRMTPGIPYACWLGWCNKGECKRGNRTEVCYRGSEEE

T20: P974_AMBCA (Amblyomma cajennense, UniProt A0A023FDY8 22-118)
T20 sequence: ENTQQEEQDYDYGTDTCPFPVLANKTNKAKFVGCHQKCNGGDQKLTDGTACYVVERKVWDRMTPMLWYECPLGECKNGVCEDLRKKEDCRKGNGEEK

T21: P983_AMBCA (Amblyomma cajennense, UniProt A0A023FFB5 22-119)
T21 sequence: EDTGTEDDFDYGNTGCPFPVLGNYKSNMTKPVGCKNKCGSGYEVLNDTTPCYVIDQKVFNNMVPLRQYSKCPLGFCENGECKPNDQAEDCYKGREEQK

T22: P1183_AMBTR (Amblyomma triste, UniProt A0A023G9N9 26-115)
T22 sequence: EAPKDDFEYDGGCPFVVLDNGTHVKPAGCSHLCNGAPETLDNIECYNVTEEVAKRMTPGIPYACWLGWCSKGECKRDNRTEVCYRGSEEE


What was measured:
CXCL9_HUMAN = biological target: T1, CXCL9_HUMAN; test: BLI
CXCL10_HUMAN = biological target: T2, CXCL10_HUMAN; test: BLI
CXCL12_HUMAN = CXCL12_HUMAN (human, UniProt P48061 22-89); test: BLI
Sequence of CXCL12_HUMAN (P48061 22-89 limits assumed): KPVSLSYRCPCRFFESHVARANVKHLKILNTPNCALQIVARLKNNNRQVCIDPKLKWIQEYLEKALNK

CXCL13_HUMAN = biological target: T3, CXCL13_HUMAN; test: BLI
CXCL14_HUMAN = biological target: T4, CXCL14_HUMAN; test: BLI
CXCL6_HUMAN = biological target: T5, CXCL6_HUMAN; test: BLI [Cont.]
CXCL1_HUMAN = biological target: T6, CXCL1_HUMAN; test: yeast surface display FACS re-test; also: test concentration or dose not given here
P467_RHIPU = biological target: T7, P467_RHIPU; test: BLI
P1243_AMBAM [1] = biological target: T8, P1243_AMBAM; test: BLI
P672_RHIPU = biological target: T9, P672_RHIPU; test: BLI
P985_AMBPA = biological target: T10, P985_AMBPA; test: BLI
P991_AMBCA = biological target: T11, P991_AMBCA; test: BLI
P1243_AMBAM [2] = biological target: T8, P1243_AMBAM; test: BLI; remark: listed apart in the source
CXCL11_HUMAN = biological target: T12, CXCL11_HUMAN; test: BLI
CXCL7_HUMAN = biological target: T13, CXCL7_HUMAN; test: BLI [Cont.]
CXCL8_HUMAN = biological target: T14, CXCL8_HUMAN; test: BLI [Cont.]
CXCL4_HUMAN = biological target: T15, CXCL4_HUMAN; test: BLI [Cont.]
P546_AMBCA = biological target: T16, P546_AMBCA; test: BLI
P1180_AMBTR = biological target: T17, P1180_AMBTR; test: BLI
P1181_AMBMA = biological target: T18, P1181_AMBMA; test: BLI
P1182_AMBMA = biological target: T19, P1182_AMBMA; test: BLI
P974_AMBCA = biological target: T20, P974_AMBCA; test: BLI
P983_AMBCA = biological target: T21, P983_AMBCA; test: BLI
P1183_AMBTR = biological target: T22, P1183_AMBTR; test: BLI

Row | Binder | binding result (CXCL9_HUMAN) | binding result (CXCL10_HUMAN) | binding result (CXCL12_HUMAN) | binding result (CXCL13_HUMAN) | binding result (CXCL14_HUMAN) | % cells over threshold fluorescence (CXCL1_HUMAN) [%] | Kd (P467_RHIPU) [nM] | Kd (P1243_AMBAM [1]) [nM] | Kd (P672_RHIPU) [nM] | Kd (P985_AMBPA) [nM] | Kd (P991_AMBCA) [nM] | Kd (P1243_AMBAM [2]) [nM] | Kd (P546_AMBCA) [nM] | Kd (P1180_AMBTR) [nM] | Kd (P1181_AMBMA) [nM] | Kd (P1182_AMBMA) [nM] | Kd (P974_AMBCA) [nM] | Kd (P983_AMBCA) [nM] | Kd (P1183_AMBTR) [nM] | also measured
1 | P1229_IXORI (other) DDEFFTVDYCGMNCTLQQDGSWTPCTQKNAECKCYHESGSSVGLCLSTAYTDFNQFGDPNNSDLDAATPRHPDASSR | no binding (tested: 300 nM) | no binding (tested: 300 nM) | no binding (tested: 300 nM) | no binding (tested: 300 nM) | no binding (tested: 300 nM) | 66 |  |  |  |  |  |  |  |  |  |  |  |  |  | binding result (CXCL6_HUMAN): no binding (tested: 300 nM)
2 | CCL16_HUMAN (ligand) QPKVPEWVNTPSTCCLKYYEKVLPRRLVVGYRKALNCHLPAIIFVTKRNREVCTNPNDDWVQEYIKDPNLPLLPTRNLSTVKIITAKNGQPQLLNSQ |  |  |  |  |  |  | 14.1 | 0.926 | 3.3 | 45 | 1.28 | 0.925 |  |  |  |  |  |  |  | 
3 | P1162_IXORI (other) LNDEELFTVDYCGTNCTQQPNGSWTTCPGNCSCYHEDGKTDGFCLSTEYTDFTQFPNLTSEEMDAATPRPE | no binding (tested: 300 nM) | no binding (tested: 300 nM) | no binding (tested: 300 nM) | no binding (tested: 300 nM) | no binding (tested: 300 nM) | 72 |  |  |  |  |  |  |  |  |  |  |  |  |  | binding result (CXCL11_HUMAN): no binding (tested: 300 nM); binding result (CXCL6_HUMAN): no binding (tested: 300 nM)
4 | P1104_IXORI (other) ESKEASASQGPGKSFKVEFCETNCTENNGVWSGCTGDCICVSVGDSKEGRCMDLGDKVIDTPVAQG | no binding (tested: 300 nM) | no binding (tested: 300 nM) |  |  | no binding (tested: 300 nM) | 65 |  |  |  |  |  |  |  |  |  |  |  |  |  | binding result (CXCL11_HUMAN): no binding (tested: 300 nM); Kd (CXCL12_HUMAN): 67.8 nM; Kd (CXCL13_HUMAN): 220 nM; binding result (CXCL7_HUMAN): no binding (tested: 300 nM); binding result (CXCL8_HUMAN): no binding (tested: 300 nM); binding result (CXCL4_HUMAN): no binding (tested: 300 nM)
5 | CCL3_HUMAN (ligand) SLAADTPTACCFSYTSRQIPQNFIADYFETSSQCSKPGVIFLTKRSRQVCADPSEEWVQKYVSDLELSA |  |  |  |  |  |  | 0.363 | 5.3 | 2.6 | 8.9 | 1.08 | 5.3 | 15 | 1.1 | 2.2 | 5.4 | 7.97 | 3.5 |  | 
6 | CCL15_HUMAN (ligand) QFTNDAETELMMSKLPLENPVVLNSFHFAADCCTSYISQSIPCSLMKSYFETSSECSKPGVIFLTKKGRQVCAKPSGPGVQDCMKKLKPYSI |  |  |  |  |  |  |  | 9.61 | 32 |  | 159 | 9.61 |  |  |  |  |  |  |  | 
7 | CCL4L1_HUMAN (ligand) APMGSDPPTACCFSYTARKLPRNFVVDYYETSSLCSQPAVVFQTKRGKQVCADPSESWVQEYVYDLELN |  |  |  |  |  |  | 4.72 | 35.4 |  | 21 | 0.827 | 35.4 | 8.9 | 20 | 35 | 92 | 23.2 | 2.9 | 48 | 
8 | CCL4_HUMAN (ligand) APMGSDPPTACCFSYTARKLPRNFVVDYYETSSLCSQPAVVFQTKRSKQVCADPSESWVQEYVYDLELN |  |  |  |  |  |  | 13.6 | 15.3 |  | 46 | 5.82 | 15.3 | 27 | 66 | 53 | 63 | 30.2 | 8 | 78 | 
9 | P1077_IXORI (other) GSKQLIGPQSSTNSIKAEFCDTNCTAGTNGIWNGCSGDCFCTHVGNSTEGRCMKITGFDEYPTSEAEE | no binding (tested: 300 nM) | no binding (tested: 300 nM) | no binding (tested: 300 nM) | no binding (tested: 300 nM) | no binding (tested: 300 nM) | 50 |  |  |  |  |  |  |  |  |  |  |  |  |  | binding result (CXCL7_HUMAN): no binding (tested: 300 nM); binding result (CXCL8_HUMAN): no binding (tested: 300 nM); binding result (CXCL4_HUMAN): no binding (tested: 300 nM)
10 | CCL11_HUMAN (ligand) not shown |  |  |  |  |  |  | 1.4 | 6.03 |  | 8 | 3.43 |  | 8.7 | 33 | 20 | 28 | 17 | 21 | 8.5 | 
